Test results as given in paper PMC9357037.

Biological target: TEMPOL-122-αS (N122C α-synuclein spin-labelled at position 122) (UniProt P37840)
Assay: CW-EPR titration (site-directed spin labelling); apparent; TEMPOL-122-αS kept at 50 μM, poly-cation titrated at increasing molar ratios; LLPS buffer without crowder (no PEG); 25 °C; band III/band II amplitude fitted to an approximate model with n identical and independent binding sites

- Kd: 5 µM
Substance: poly-L-lysine of 100 residues (peptide)
